This is an account of results in paper PMC5270756.

Usually Km stands for the concentration of substrate that gives half-maximal velocity.

Substrate in the series: c1cc2ccc3cccc4ccc(c1)c2c34
The series is described as follows: oxidation kinetics. It counts as biochemical, Homo sapiens. The note with it: heme; NADPH.

B1: P450 1A1 (Homo sapiens) (protein)
chain: MLFPISMSATEFLLASVIFCLVFWVIRASRPQVPKGLKNPPGPWGWPLIGHMLTLGKNPHLALSRMSQQYGDVLQIRIGSTPVVVLSGLDTIRQALVRQGDDFKGRPDLYTFTLISNGQSMSFSPDSGPVWAARRRLAQNGLKSFSIASDPASSTSCYLEEHVSKEAEVLISTLQELMAGPGHFNPYRYVVVSVTNVICAICFGRRYDHNHQELLSLVNLNNNFGEVVGSGNPADFIPILRYLPNPSLNAFKDLNEKFYSFMQKMVKEHYKTFEKGHIRDITDSLIEHCQEKQLDENANVQLSDEKIINIVLDLFGAGFDTVTTAISWSLMYLVMNPRVQRKIQEELDTVIGRSRRPRLSDRSHLPYMEAFILETFRHSSFVPFTIPHSTTRDTSLKGFYIPKGRCVFVNQWQINHDQKLWVNPSEFLPERFLTPDGAIDKVLSEKVIIFGMGKRKCIGETIARWEVFLFLAILLQRVEFSVPLGVKVDMTPIYGLTMKHACCEHFQMQLRS
For the protein B1, the Km was 1.7 µM.
